# Assay results reported in US9144594B2, “Cathepsin L mediated diseases and associated methods and products” (University of Miami, priority 2005, dated 2015).
# Tested on: LPS induced mouse proteinuria model
# Test: LPS induced mouse proteinuria model, protein in urine (prevention and reversal by dynamin gene delivery)
# Assay type: in vivo
# Protocol: Next, it was examined whether gene transfer of dynR725A and dynL356Q, G358V was able to protect from LPS induced changes of podocyte FP and thus proteinuria (FIGS. 6A-B); (Table 2B). […] Whereas the application of wildtype dynamin was unable to protect from LPS induced podocyte FP effacement (data not shown) and proteinuria (0.63 mg/ml after 24 hours, p<0.05 and 1.18 mg/ml after 48 hours, p<0.04); table 2B, the co-administration of R725A together with LPS completely abolished the development of proteinuria after 24 hours (0.20 mg/ml). Podocyte FPs remained normal at this timepoint (FIG. 6B). The decline of R725A expression in podocytes was then associated with the development of proteinuria (1.25 mg/ml, 48 h). At this time point, there was noticeable podocyte FP effacement. The application of the cathepsin L resistant dynamin mutant L356Q, G358V together with LPS conferred a partial protection from proteinuria (0.47 mg/ml, P<0.05). This protection was associated with normal appearing podocyte FP (FIG. 6C). Although this protection was not as strong as the one provided by dynR725A, it was prolonged and was still present even after the second dose of LPS ([…], P<0.04). This observation argues that lower expression levels of dynL356Q, G358V are required to protect from LPS induced FP effacement but the presence of dynR725A has the most powerful protection.
# Another set of experiments was carried out to study whether dynR725A and dynL356Q, G358V are also useful once there is already established podocyte damage and proteinuria (reversal experiments), (FIGS. 6C, D); (Table 2C). First LPS was injected in mice at 0 and 24 hours and the course of urinary protein loss was documented. On the peak phase of proteinuria at 48 hours after the first LPS injection, either delivery solution (control), dynR725A or dynL356Q, G358V dynamin mutants were transferred and the morphology of podocyte FP was analyzed and the degree of proteinuria was determined 10 hours later when there was strong expression of the transferred gene in podocytes. […] A dramatic reformation of podocyte FPs was also observed (FIG. 6C). The same observation was true for L356Q, G358V (FIG. 6D) which was able to reduce proteinuria from 1.20 mg/ml to 0.71 mg/ml). From the in vitro data it was determined that R725A starts to self assemble into higher order structures in the LPS setting which render dynamin assembly domain protected from cathepsin L cleavage. […] In addition, dominant activating dynR725A proves useful because despite causing podocyte damage in wildtype mice, it can resist cathepsin L cleavage by self assembly in the LPS setting and have strong activity by impairment in its GTP hydrolysis.
# If dynamin is a target of CatL, then dynL356Q and dynR725A, which are resistant to CatL cleavage, might protect kidneys from LPS. In control mice, two injections of LPS led to FP effacement (FIG. 21C) and a large increase in proteinuria (FIG. 21E, Con).
# Next it was examined whether dynL356Q and dynR725A can reverse already established proteinuria. LPS was injected into mice at 0 and 24 hours. At the peak of proteinuria at 48 hours, mice were injected with dynWT, dynL356Q, or dynR725A, and the degree of proteinuria was analyzed 12 hours post injection. […] The rescue could be achieved with both podocin and CMV-driven protein expression.
# All animal studies were approved by the MGH Subcommittee for Research Animal Care. C57BL6 mice were obtained from Jackson Laboratory (Bar Harbor, Me.). CatL−/− mice are in a pure C57BL6 background (Nakagawa et al., Science 280, 450-453 (1998)). LPS induced mouse proteinuria model was utilized as previously described (Reiser et al., J Clin Invest 113, 1390-1397 (2004)). Rat PAN nephrosis model was induced by a single intravenous injection of PAN (180 mg/kg body wt; Sigma-Aldrich, St. Louis, Mo.) (Kim et al., Am J Physiol Renal Physiol 286, F922-935 (2004)). […]
# [1] = Table 2B Prevention, 2xLPS, t = 0
# [2] = Table 2B Prevention, 2xLPS, t = 10 h
# [3] = Table 2C Reversal, LPS at 0 and 24 h, t = 0
# [4] = gene delivery immediately before LPS injection
# [5] = injected at 48 hours, analyzed 12 hours post injection
molecule,measurement,setting,value
dynWT: wild type dynamin overexpressed by adenovirus or delivered as dynamin 1 cDNA,Protein in the urine,[1],0.28 ± 0.07 mg/mL
same,Protein in the urine,[2],0.27 ± 0.07 mg/mL
same,Protein in the urine,"Table 2B Prevention, 2xLPS, t = 24 h, listed as Dyn WT",0.63 ± 0.12 mg/mL
same,Protein in the urine,"Table 2B Prevention, 2xLPS, t = 24 h, listed as wildtype dynamin",0.63 mg/mL
same,Protein in the urine,"Table 2B Prevention, 2xLPS, t = 48 h, listed as Dyn WT",1.18 ± 0.23 mg/mL
same,Protein in the urine,"Table 2B Prevention, 2xLPS, t = 48 h, listed as wildtype dynamin",1.18 mg/mL
same,Protein in the urine,[3],0.30 ± 0.10 mg/mL
same,Protein in the urine,"Table 2C Reversal, t = 48 h, at gene transfer, listed as Dyn WT",1.17 ± 0.18 mg/mL
same,Protein in the urine,"Table 2C Reversal, t = 48 h, at gene transfer, listed as wildtype dynamin",1.26 mg/mL
same,Protein in the urine,"Table 2C Reversal, t = 58 h, 10 hours after gene transfer, listed as Dyn WT",1.10 ± 0.17 mg/mL
same,Protein in the urine,"Table 2C Reversal, t = 58 h, 10 hours after gene transfer, listed as wildtype dynamin",1.32 mg/mL
same,"protection from LPS-induced proteinuria, in words",[4],did not protect against these changes
same,"reversal of established proteinuria, in words",[5],did not reduce proteinuria
"dynR725A: dynamin mutant (SEQ ID NO.4) with impaired GTP hydrolysis capacity (protein, listed as Homo sapiens) MGNRGMEDLIPLVNRLQDAFSAIGQNADLDLPQIAVVGGQSAGKSSVLENFVGRDFLPRGSGIVTRRPLVLQLVNATTEYAEFLHCKGKKFTDFEEVRLEIEAETDRVTGTNKGISPVPINLRVYSPHVLNLTLVDLPGMTKVPVGDQPPDIEFQIRDMLMQFVTKENCLILAVSPANSDLANSDALKVAKEVDPQGQRTIGVITKLDLMDEGTDARDVLENKLLPLRRGYIGVVNRSQKDIDGKKDITAALAAERKFFLSHPSYRHLADRMGTPYLQKVLNQQLTNHIRDTLPGLRNKLQSQLLSIEKEVEEYKNFRPDDPARKTKALLQMVQQFAVDFEKRIEGSGDQIDTYELSGGARINRIFHERFPFELVKMEFDEKELRREISYAIKNIHGIRTGLFTPDMAFETIVKKQVKKIREPCLKCVDMVISELISTVRQCTKKLQQYPRLREEMERIVTTHIREREGRTKEQVMLLIDIELAYMNTNHEDFIGFANAQQRSNQMNKKKTSGNQDEILVIRKGWLTINNIGIMKGGSKEYWFVLTAENLSWYKDDEEKEKKYMLSVDNLKLRDVEKGFMSSKHIFALFNTEQRNVYKDYRQLELACETQEEVDSWKASFLRAGVYPERVGDKEKASETEENGSDSFMHSMDPQLERQVETIRNLVDSYMAIVNKTVRDLMPKTIMHLMINNTKEFIFSELLANLYSCGDQNTLMEESAEQAQRADEMLRMYHALKEALSIIGDINTTTVSTPMPPPVDDSWLQVQSVPAGRRSPTSSPTPQRRAPAVPPARPGSRGPAPGPPPAGSALGGAPPVPSRPGASPDPFGPPPQVPSRPNRAPPGVPSRSGQASPSRPESPRPPFDL",Protein in the urine,[1],0.17 ± 0.07 mg/mL
same,Protein in the urine,[2],0.23 ± 0.07 mg/mL
same,Protein in the urine,"Table 2B Prevention, 2xLPS, t = 24 h",0.20 mg/mL
same,Protein in the urine,"Table 2B Prevention, 2xLPS, t = 48 h, listed as Dyn R725A",1.25 ± 0.26 mg/mL
same,Protein in the urine,"Table 2B Prevention, 2xLPS, t = 48 h, listed as R725A",1.25 mg/mL
same,Protein in the urine,[3],0.28 ± 0.08 mg/mL
same,Protein in the urine,"Table 2C Reversal, t = 48 h, at gene transfer",1.15 mg/mL
same,Protein in the urine,"Table 2C Reversal, t = 48 h, at gene transfer, listed as Dyn R725A",1.15 ± 0.15 mg/mL
same,Protein in the urine,"Table 2C Reversal, t = 58 h, 10 hours after gene transfer",0.38 mg/mL
same,Protein in the urine,"Table 2C Reversal, t = 58 h, 10 hours after gene transfer, listed as Dyn R725A",0.38 ± 0.20 mg/mL
same,"protection from LPS-induced proteinuria, in words",[4],completely inhibited development of proteinuria after 24 hours
same,"reversal of established proteinuria, in words",[5],almost complete reversal of proteinuria
"dynL356Q, G358V: dynamin mutant (SEQ ID NO.3) not recognized by cathepsin L; ELSGGA mutated to EQSVGA (protein, listed as Homo sapiens) MGNRGMEDLIPLVNRLQDAFSAIGQNADLDLPQIAVVGGQSAGKSSVLENFVGRDFLPRGSGIVTRRPLVLQLVNATTEYAEFLHCKGKKFTDFEEVRLEIEAETDRVTGTNKGISPVPINLRVYSPHVLNLTLVDLPGMTKVPVGDQPPDIEFQIRDMLMQFVTKENCLILAVSPANSDLANSDALKVAKEVDPQGQRTIGVITKLDLMDEGTDARDVLENKLLPLRRGYIGVVNRSQKDIDGKKDITAALAAERKFFLSHPSYRHLADRMGTPYLQKVLNQQLTNHIRDTLPGLRNKLQSQLLSIEKEVEEYKNFRPDDPARKTKALLQMVQQFAVDFEKRIEGSGDQIDTYEQSVGARINRIFHERFPFELVKMEFDEKELRREISYAIKNIHGIRTGLFTPDMAFETIVKKQVKKIREPCLKCVDMVISELISTVRQCTKKLQQYPRLREEMERIVTTHIREREGRTKEQVMLLIDIELAYMNTNHEDFIGFANAQQRSNQMNKKKTSGNQDEILVIRKGWLTINNIGIMKGGSKEYWFVLTAENLSWYKDDEEKEKKYMLSVDNLKLRDVEKGFMSSKHIFALFNTEQRNVYKDYRQLELACETQEEVDSWKASFLRAGVYPERVGDKEKASETEENGSDSFMHSMDPQLERQVETIRNLVDSYMAIVNKTVRDLMPKTIMHLMINNTKEFIFSELLANLYSCGDQNTLMEESAEQAQRRDEMLRMYHALKEALSIIGDINTTTVSTPMPPPVDDSWLQVQSVPAGRRSPTSSPTPQRRAPAVPPARPGSRGPAPGPPPAGSALGGAPPVPSRPGASPDPFGPPPQVPSRPNRAPPGVPSRSGQASPSRPESPRPPFDL",Protein in the urine,[1],0.21 ± 0.05 mg/mL
same,Protein in the urine,[2],0.26 ± 0.05 mg/mL
same,Protein in the urine,"Table 2B Prevention, 2xLPS, t = 24 h, listed as Dyn L356Q, G358V",0.47 ± 0.17 mg/mL
same,Protein in the urine,"Table 2B Prevention, 2xLPS, t = 24 h, listed as L356Q, G358V",0.47 mg/mL
same,Protein in the urine,"Table 2B Prevention, 2xLPS, t = 48 h",0.65 ± 0.10 mg/mL
same,Protein in the urine,[3],0.18 ± 0.08 mg/mL
same,Protein in the urine,"Table 2C Reversal, t = 48 h, at gene transfer, listed as Dyn L356Q, G358V",1.20 ± 0.27 mg/mL
same,Protein in the urine,"Table 2C Reversal, t = 48 h, at gene transfer, listed as L356Q, G358V",1.20 mg/mL
same,Protein in the urine,"Table 2C Reversal, t = 58 h, 10 hours after gene transfer, listed as Dyn L356Q, G358V",0.71 ± 0.09 mg/mL
same,Protein in the urine,"Table 2C Reversal, t = 58 h, 10 hours after gene transfer, listed as L356Q, G358V",0.71 mg/mL
same,reduction of proteinuria,[4],~50%
same,proteinuria,"prevention, after the second dose of LPS",0.65 mg/dL
same,reduction of proteinuria,"reversal, injected at 48 hours, analyzed 12 hours post injection",~50%
